Data: publication PMC11054746, “GRPR-Antagonists Carrying DOTAGA-Chelator via Positively Charged Linkers: Perspectives for Prostate Cancer Theranostics” (Pharmaceutics, 2024)
Starred links: 1 amine or outer side, 2 acyl side, 3 side chain; linkers in the order of their positions; H or OH if unused. Non-standard residues stand in square brackets, D forms with d. Residues, ends and D or L forms follow the SMILES beside them. *: point of attachment. DOTAGA = O=C(O)CN1CCN(CC(=O)O)CCN(C(CCC(=O)*)C(=O)O)CCN(CC(=O)O)CC1; Sta = CC(C)C[C@H](N)[C@@H](O)CC(=O)O; X1 = O=C(CN1CCC(N[*:1])CC1)[*:2]; Sar = CNCC(=O)O

Assays:
[1] = Radiochemical stability: indium release in PBS or with EDTA excess, by iTLC; format: physicochemical; details: room temperature, 0.2 M citric acid, mean ± sd, n = 3
Description: The radiochemical yield was analyzed with instant thin layer chromatography (iTLC) strips (Agilent Technologies, Santa Clara, CA, USA), using 0.2 M citric acid buffer as a mobile phase (Rf = 0 for the radiolabeled peptide and Rf = 1 for free indium). The iTLC results were analyzed using Cyclone® Plus Phosphorimager (PerkinElmer, Hägersten, Sweden). The radiochemical stability was determined by incubating the radiolabeled compounds with phosphate-buffered saline (PBS) or a 1000-fold molar excess of ethylenediaminetetraacetic acid (EDTA) for 1 h at room temperature. The percentage of indium release was assessed by iTLC using 0.2 M citric acid as mobile phase. Stability tests were performed in triplicate for each compound.

[2] = target: T1, human GRPR (Homo sapiens, UniProt P30550); test: Affinity measurements in real time (LigandTracer) on PC-3 cells; format: binding; details: room temperature, 1:2 fitting interaction model
T1 construct: host or cells: PC-3 human prostate adenocarcinoma cells
Description: The association curves were recorded at 1 nM and 3 nM of the radiolabeled peptides for 300 min. After reaching the plateau, the medium containing the radioligand was replaced with fresh medium and the dissociation curve was measured for about 16 h. The obtained sensorgrams were analyzed using TracerDrawer (Ridgeview Instruments AB, Uppsala, Sweden) and the dissociation constants (KD) were calculated.

[3] = system: PC-3 xenografts; test: in vivo; parameters: species or system BALB/C nu/nu mice; details: mouse
Description: (§1) All in vivo studies were performed following European guidelines on laboratory animal protection. The in vivo stability experiments were carried out in healthy male Swiss albino mice; the study protocol was approved by the Department of Agriculture and Veterinary Service of the Prefecture of Athens (protocol number #440448, 01-06-2021). The biodistribution, in vivo targeting specificity assay, and SPECT/CT imaging experiments were carried out on BALB/C nu/nu mice. The Ethics Committee for Animal Research in Uppsala (Sweden) approved the latter in vivo animal studies (permit number 00473/21). The BALB/C nu/nu mice were implanted with GRPR-positive prostate cancer xenografts by subcutaneous injection on the right hind leg of PC-3 cells suspended in PBS (7 × 10^6 cells/mouse) four weeks before the biodistribution studies.
(§2) The mice were iv injected with 40 pmol peptide (30 kBq in a total volume of 100 μL 1% bovine serum albumin (BSA) in PBS). […] At the indicated time points, mice were euthanized under anesthesia. The organs of interest were collected, weighed, and the sample radioactivity content was measured on the gamma counter. The percentage of injected activity per gram (%IA/g) of collected tumors, organs and tissues, the %IA for the remaining gastrointestinal tract and carcass, as well as the tumor-to-organ ratios (T/O) were calculated.

[4] = in vivo; parameters: species or system BALB/C nu/nu mice; details: BALB/C nu/nu, mouse, iv, total radioactivity; for tissue to tissue ratio at 4 h / tissue to tissue ratio at 24 h: Tumor-to-organ ratio
Description: as §1, §2

[5] = system: PC-3 cells; test: In vitro binding specificity assay (uptake with and without GRPR blocking by NOTA-PEG2-RM26); format: cell-based, human; details: 1 nM radiotracer, 1 h, unblocked
Description: The in vitro binding assay was performed on PC-3 cells seeded in 6-well plates (1.15 × 10^6 cells/well). Media containing a GRPR-blocking agent (NOTA-PEG2-RM26, 1 μM) were added to half of the wells. The plates were incubated at room temperature for 10 min and the medium containing the radiotracer under investigation was added to all wells in a final concentration of 1 nM. The plates were incubated for 1 h and then treated with 0.25% trypsin-EDTA to detach cells. The cells were collected and their activity was measured using the gamma counter.

[6] = system: PC-3 cells; test: Cellular internalization; format: cell-based, human; details: 1 nM, acid wash, mean of 3 dishes ± sd, normalized to maximum cell association at 24 h
Description: For the cellular internalization assay, PC-3 cells (1 × 10^6 cells/dish) were used. The cells were incubated with 1 mL (1 nM) of solution containing the radiolabeled peptide under evaluation. At the 4 h and 24 h time points, the cells were treated with an acid wash (0.2 M glycine buffer with 0.15 M NaCl and 4 M urea, pH 2) for 5 min on ice to remove the membrane-bound peptide. After collection of acid fractions, the cells were treated with 1 M NaOH for at least 30 min and the cell debris were scraped and collected. The activity content in samples was measured using the gamma counter.

[7] = 40 pmol, GI (gastrointestinal tract, GIT) uptake

T1 sequence (P30550 whole entry): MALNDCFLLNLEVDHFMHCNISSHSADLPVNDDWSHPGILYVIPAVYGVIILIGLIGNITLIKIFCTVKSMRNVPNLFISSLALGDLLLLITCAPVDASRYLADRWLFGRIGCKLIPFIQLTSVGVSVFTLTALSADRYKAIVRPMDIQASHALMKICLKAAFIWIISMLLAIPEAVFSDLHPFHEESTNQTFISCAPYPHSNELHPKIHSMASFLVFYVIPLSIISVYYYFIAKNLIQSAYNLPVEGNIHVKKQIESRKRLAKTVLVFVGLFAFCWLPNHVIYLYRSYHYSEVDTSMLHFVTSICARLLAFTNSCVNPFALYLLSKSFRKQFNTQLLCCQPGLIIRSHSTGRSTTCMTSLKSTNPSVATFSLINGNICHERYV

CC(C)C[C@H](NC(=O)C[C@H](O)[C@H](CC(C)C)NC(=O)[C@H](Cc1c[nH]cn1)NC(=O)CN(C)C(=O)[C@@H](NC(=O)[C@H](C)NC(=O)[C@H](Cc1c[nH]c2ccccc12)NC(=O)[C@H](CCC(N)=O)NC(=O)[C@@H](Cc1ccccc1)NC(=O)CN1CCC(NC(=O)[C@H](CCCNC(=N)N)NC(=O)[C@H](CCCNC(=N)N)NC(=O)CCC(C(=O)O)N2CCN(CC(=O)O)CCN(CC(=O)O)CCN(CC(=O)O)CC2)CC1)C(C)C)C(N)=O (stereo partly drawn) [[^111In]In-AU-RM26-M4, metal not drawn] ({DOTAGA}-RR[X1][dF]QWAV[Sar]H[Sta]L-NH2)
released [111In]In3+, ×1000 EDTA (1 h) ([1]; 1000-fold molar excess of EDTA): 3.2 ± 0.1% (3) | released [111In]In3+, PBS ([1]; incubation in PBS, 1 h): 1.9 ± 0.1% (3) | ka1 ([2]; association at 1 and 3 nM): 344000 M⁻¹ s⁻¹ | ka2 ([2]; association at 1 and 3 nM): 346000 M⁻¹ s⁻¹ | kd1 ([2]; dissociation about 16 h): 2e-06 s⁻¹ | kd2 ([2]; dissociation about 16 h): 2.08e-06 s⁻¹ | Blood uptake ([3]; BALB/C nu/nu, iv, 40 pmol, 4 h): 0.125 ± 0.0004 %IA/g | kidney uptake at 24 h pi retained as % of the 4 h renal value [3]: < 38% | pancreas uptake at 24 h pi as % of the initial 4 h uptake [3]: less than 10% | tissue uptake at 4 h ([4]; 40 pmol, Blood uptake): 0.122 ± 0.0013 %ID/g | tissue uptake at 24 h ([4]; 40 pmol, Blood uptake): 0.02 ± 0.01 %ID/g | tissue uptake at 4 h ([4]; 40 pmol, Bone uptake): 0.13 ± 0.04 %ID/g | tissue uptake at 24 h ([4]; 40 pmol, Bone uptake): 0.09 ± 0.02 %ID/g | tissue uptake dose at 4 h ([4]; 40 pmol, Carcass (whole body) uptake): 3 ± 1.5 %ID | tissue uptake dose at 24 h ([4]; 40 pmol, Carcass uptake): 0.8 ± 0.2 %ID | tissue uptake dose at 4 h [4, 7]: 1.4 ± 0.3 %ID | tissue uptake dose at 24 h [4, 7]: 0.15 ± 0.03 %ID | tissue uptake at 4 h ([4]; 40 pmol, Kidneys uptake): 7 ± 1 %ID/g | tissue uptake at 24 h ([4]; 40 pmol, Kidneys uptake): 2.7 ± 0.1 %ID/g | tissue uptake at 4 h ([4]; 40 pmol, Liver uptake): 0.6 ± 0.11 %ID/g | tissue uptake at 24 h ([4]; 40 pmol, Liver uptake): 0.31 ± 0.07 %ID/g | tissue uptake at 4 h ([4]; 40 pmol, Lungs uptake): 0.2 ± 0.08 %ID/g | tissue uptake at 24 h ([4]; 40 pmol, Lungs uptake): 0.06 ± 0.02 %ID/g | tissue uptake at 4 h ([4]; 40 pmol, Muscle uptake): 0.06 ± 0.02 %ID/g | tissue uptake at 24 h ([4]; 40 pmol, Muscle uptake): 0.02 ± 0.01 %ID/g | tissue uptake at 4 h ([4]; 40 pmol, Pancreas uptake): 3.4 ± 0.6 %ID/g | tissue uptake at 24 h ([4]; 40 pmol, Pancreas uptake): 0.36 ± 0.08 %ID/g | tissue uptake at 4 h ([4]; 40 pmol, Small Int uptake): 1.1 ± 0.3 %ID/g | tissue uptake at 24 h ([4]; 40 pmol, Small Int uptake): 0.11 ± 0.03 %ID/g | tissue uptake at 4 h ([4]; 40 pmol, Spleen uptake): 0.23 ± 0.07 %ID/g | tissue uptake at 24 h ([4]; 40 pmol, Spleen uptake): 0.14 ± 0.04 %ID/g | tissue uptake at 4 h ([4]; 40 pmol, Tumor uptake): 15 ± 5 %ID/g | tissue uptake at 24 h ([4]; 40 pmol, Tumor uptake): 7 ± 3 %ID/g | tissue to tissue ratio at 4 h ([4]; 40 pmol, Blood): 123 ± 43 | tissue to tissue ratio at 24 h ([4]; 40 pmol, Blood): 369 ± 228 | tissue to tissue ratio at 4 h ([4]; 40 pmol, Bone): 119 ± 40 | tissue to tissue ratio at 24 h ([4]; 40 pmol, Bone): 79 ± 25 | tissue to tissue ratio at 4 h ([4]; 40 pmol, Kidneys): 2.3 ± 0.9 | tissue to tissue ratio at 24 h ([4]; 40 pmol, Kidneys): 2.6 ± 0.9 | tissue to tissue ratio at 4 h ([4]; 40 pmol, Liver): 25 ± 11 | tissue to tissue ratio at 24 h ([4]; 40 pmol, Liver): 23 ± 9 | tissue to tissue ratio at 4 h ([4]; 40 pmol, Lungs): 90 ± 59 | tissue to tissue ratio at 24 h ([4]; 40 pmol, Lungs): 120 ± 61 | tissue to tissue ratio at 4 h ([4]; 40 pmol, Muscle): 307 ± 168 | tissue to tissue ratio at 24 h ([4]; 40 pmol, Muscle): 347 ± 176 | tissue to tissue ratio at 4 h ([4]; 40 pmol, Pancreas): 4 ± 1 | tissue to tissue ratio at 24 h ([4]; 40 pmol, Pancreas): 20 ± 5 | tissue to tissue ratio at 4 h ([4]; 40 pmol, Small Int): 15 ± 7 | tissue to tissue ratio at 24 h ([4]; 40 pmol, Small Int): 67 ± 35 | tissue to tissue ratio at 4 h ([4]; 40 pmol, Spleen): 71 ± 37 | tissue to tissue ratio at 24 h ([4]; 40 pmol, Spleen): 54 ± 30 | tissue uptake dose at 4 h ([4]; Carcass uptake, Block): 1.6 ± 0.3 %ID | tissue uptake dose at 4 h ([4]; GI (gastrointestinal tract, GIT) uptake, Block): 0.5 ± 0.2 %ID | cell uptake, fold higher than the other analogs of the series [5]: 2 fold | internalized fraction at 24 h [6]: 33 ± 7%
